Seven molecules from patent US20170355769A1 (AbbVie / Abbott, published 2017) can be followed below.

Test [1] deals with T1, Human full length B7-H3 (human, UniProt Q5ZPR3 29-534).
T1 sequence: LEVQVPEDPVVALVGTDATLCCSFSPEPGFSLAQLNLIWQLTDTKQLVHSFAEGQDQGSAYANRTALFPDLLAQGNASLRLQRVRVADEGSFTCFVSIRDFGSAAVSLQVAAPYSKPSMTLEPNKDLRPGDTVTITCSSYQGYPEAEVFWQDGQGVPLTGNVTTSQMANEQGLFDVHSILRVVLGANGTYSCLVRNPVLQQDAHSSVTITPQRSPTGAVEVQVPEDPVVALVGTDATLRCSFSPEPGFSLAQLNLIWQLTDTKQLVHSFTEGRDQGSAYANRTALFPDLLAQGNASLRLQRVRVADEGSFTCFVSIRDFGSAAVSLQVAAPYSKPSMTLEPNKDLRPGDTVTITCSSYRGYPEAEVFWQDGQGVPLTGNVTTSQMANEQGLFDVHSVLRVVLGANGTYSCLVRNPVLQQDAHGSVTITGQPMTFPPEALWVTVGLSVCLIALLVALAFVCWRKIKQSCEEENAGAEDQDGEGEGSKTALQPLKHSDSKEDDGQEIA
Put plainly: cell-based or functional assay.

In test [2] the target is T2, Mouse B7-H3 on cells (mouse, UniProt Q8VE98 29-316).
T2 construct: whole, on cells
T2 sequence (looked up): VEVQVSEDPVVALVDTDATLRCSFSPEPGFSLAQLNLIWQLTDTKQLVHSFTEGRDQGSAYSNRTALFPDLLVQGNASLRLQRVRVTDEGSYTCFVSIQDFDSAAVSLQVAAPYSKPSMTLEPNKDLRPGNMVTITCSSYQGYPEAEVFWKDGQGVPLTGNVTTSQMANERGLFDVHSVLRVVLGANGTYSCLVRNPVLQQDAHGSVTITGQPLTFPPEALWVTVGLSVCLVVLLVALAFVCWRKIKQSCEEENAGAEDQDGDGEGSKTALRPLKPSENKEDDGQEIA
Put plainly: FACS, 3T12 transfectants. The procedure:
(§1) A selection of hits were subcloned using the MoFlo (Beckman, Indianapolis, Ind., US) by depositing a single cell per well into 96 well cell culture plates to ensure clonality of the cell line. Resulting colonies were screened for specificity by FACS using mouse 3T12 fibroblast cell lines expressing the human B7-H3, cynomolgous B7-H3 or mouse B7-H3. Isotype of each monoclonal antibody was determined using the Mouse Monoclonal Isostyping Kit (Roche, No. 11-493-027-001, Indianapolis, Ind., USA).
A general note: A flow cytometer gives signals particle by particle.

Test [3] concerns the target T1, Human full length B7-H3. Description: FACS, 3T12 transfectants. The procedure:
as §1

In test [4] the target is T3, Cynomolgous B7-H3 on cells (cynomolgus).
T3 construct: whole, on cells; also called cyB7-H3; cyno B7-H3
Description: FACS, 3T12 transfectants. As to the method: as §1

Test [5] concerns the target T4, Cyno B7-H3-ECD (his tag) (cynomolgus).
T4 construct: SPR analyte; also called soluble ECD of cyno B7-H3
T4 chain: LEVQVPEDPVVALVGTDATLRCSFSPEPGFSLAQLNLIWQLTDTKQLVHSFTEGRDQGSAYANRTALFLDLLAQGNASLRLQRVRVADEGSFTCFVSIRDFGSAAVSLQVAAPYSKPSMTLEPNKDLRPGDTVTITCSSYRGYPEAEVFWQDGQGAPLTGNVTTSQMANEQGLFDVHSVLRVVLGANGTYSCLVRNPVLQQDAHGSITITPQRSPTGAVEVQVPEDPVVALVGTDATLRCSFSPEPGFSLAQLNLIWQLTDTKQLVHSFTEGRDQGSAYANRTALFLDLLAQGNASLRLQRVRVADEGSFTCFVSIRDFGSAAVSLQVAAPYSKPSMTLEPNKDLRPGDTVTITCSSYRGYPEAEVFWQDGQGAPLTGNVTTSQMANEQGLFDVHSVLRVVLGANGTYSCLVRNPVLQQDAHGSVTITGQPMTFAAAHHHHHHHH
Description: SPR, mAb captured, ECD analyte. (In general: SPR reads the build-up and loss of mass on a sensor chip optically.)

Test [6] addresses T5, Human B7-H3-ECD (His tag) (human, UniProt Q5ZPR3 29-461).
T5 construct: SPR analyte; also called huB7-H3; soluble ECD of human B7-H3
T5 sequence: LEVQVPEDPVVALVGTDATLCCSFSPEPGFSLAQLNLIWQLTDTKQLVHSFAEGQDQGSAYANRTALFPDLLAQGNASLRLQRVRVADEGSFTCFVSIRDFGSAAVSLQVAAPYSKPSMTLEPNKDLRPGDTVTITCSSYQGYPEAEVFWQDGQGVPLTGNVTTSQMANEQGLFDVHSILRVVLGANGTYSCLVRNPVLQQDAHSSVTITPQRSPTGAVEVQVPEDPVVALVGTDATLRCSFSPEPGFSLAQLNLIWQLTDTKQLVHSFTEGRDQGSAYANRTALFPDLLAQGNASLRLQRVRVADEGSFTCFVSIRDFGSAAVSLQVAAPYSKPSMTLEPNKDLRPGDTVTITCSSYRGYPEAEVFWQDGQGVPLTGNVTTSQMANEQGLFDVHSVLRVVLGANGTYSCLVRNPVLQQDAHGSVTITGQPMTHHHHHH
Description: SPR, mAb captured, ECD analyte.

B1: huAb13v1-LB (antibody, human IgG1, kappa, L234A L235A, V domains shown)
VH: EVQLQESGPGLVKPSETLSLTCAVTGYSITSGYSWHWIRQFPGNGLEWMGYIHSSGSTNYNPSLKSRISISRDTSKNQFFLKLSSVTAADTAVYYCAGYDDYFEYWGQGTTVTVSS
VL: DIQMTQSPSSLSASVGDRVTITCKASQNVGFNVAWYQQKPGKSPKALIYSASYRYSGVPSRFSGSGSGTDFTLTISSLQPEDFAEYFCQQYNWYPFTFGQGTKLEIKR
modifications: synthon LB on reduced interchain Cys
For the molecule B1, in test [1], the “EC50 nM H1650 (tumor cell cytotoxicity)” value is > 133 nM.

B2: huAb13v1-ZZ (antibody, human IgG1, kappa, L234A L235A, V domains shown)
VH: B1 VH
VL: B1 VL
modifications: synthon ZZ on reduced interchain Cys
With B2, in test [1], the “EC50 nM H1650 (tumor cell cytotoxicity)” value worked out at 0.42 nM.

B3: huAb13v1-ZT (antibody, human IgG1, kappa, L234A L235A, V domains shown)
VH: B1 VH
VL: B1 VL
modifications: synthon ZT on reduced interchain Cys
In the case of B3, in test [1], the “EC50 nM H1650 (tumor cell cytotoxicity)” value worked out at 0.3 nM.

B4: Ab7 (antibody, mouse IgG1, V domains shown)
VH: EVQLVESGENLVKPGGSLKLSCAASGFSFRGYGMSWVRQTPDKRLEWVAAISTGGNYTYYPDSVQGRFTISRDNANNTLYLQMSSLKSEDTAMYYCARRGGNYAGFAYWGQGTLVTVSA
VL: DIQMTQSPASLSVSVGETVTITCRPSENIYSNLAWYQQKQGKSPQLLVYAATNLADGVPSRFSGSGSGTQYSLKINSLQSEDFGTYYCQHFWGTPFTFGSGTKLEIK
notes: mouse IgG1/k
B4: the EC50 (as a rule, the concentration needed to bring the measured effect to its halfway point) stood at 67.1 nM in test [2], 3.22 nM in test [3] and 2.67 nM in test [4]. Besides, in test [5], the binding result is “binds”.

B5: Ab4 (antibody, mouse IgG2b, V domains shown)
VH: QVQLQQPGAELVKPGASVKLSCKASGYSFTSYWMHWVKQRPGQGLEWIGMIHPNSGSNNYNEKFKSKATLTVDKSSNTAYMQLSSLTSEDSAVYYCARRLGLHFDYWGQGTTLTVSS
VL: DIVMTQSQKFMSTPVGDRVSITCKASQNVGTAVAWYQQKPGQSPKLLIYSASNRYTGVPDRFTGSGSGTDFTLTISNMQSEDLADYFCQQYSSYPYTFGGGTKLEIK
notes: mouse IgG2b/k
As to B5, the EC50 in test [2] was determined as 1.75 nM; in test [3] it was 4.06 nM; in test [4], 3.1 nM. Further, the dissociation constant Kd (usually the concentration at which binding is half-saturated) in test [5] was determined as 1.8 nM; in test [6] it was 1.6 nM. The koff (commonly a measure of how fast the partners let go of each other) in test [5] was 0.00096 s⁻¹; in test [6], 0.0011 s⁻¹. In addition, the kon (as a rule, the rate constant with which the complex forms) worked out at 540000 M⁻¹ s⁻¹ in test [5] and 690000 M⁻¹ s⁻¹ in test [6].

B6: Ab18 (antibody, mouse IgG1, V domains shown)
VH: QVQLQQSAAELARPGASVKMSCKASGYSFTSYTIHWVKQRPGQGLEWIGYINPNSRNTDYNQKFKDETTLTADRSSSTAYMQLISLTSEDSAVYYCARYSGSTPYWYFDVWGAGTTVTVSS
VL: QIVLTQSPAILSASPGEKVTMTCRASSSVSYMNWYQQKPGSSPKPWIYATSNLASGVPARFSVSVSGTSHSLTISRVEAEDAATYYCQQWSSNPLTFGAGTKLELK
notes: mouse IgG1/k
As for B6, the binding result in test [2] is “no binding”. The EC50 in test [3] amounted to 5.98 nM; in test [4], 6.49 nM. Also, the Kd in test [5] was 0.12 nM; in test [6], 0.17 nM. Moreover, the koff turned out to be 2.9e-05 s⁻¹ in test [5] and 3.6e-05 s⁻¹ in test [6]. Further, the on-rate constant (kon) came out at 240000 M⁻¹ s⁻¹ in test [5] and 210000 M⁻¹ s⁻¹ in test [6].

B7: Ab9 (antibody, V domains shown)
VH: QVQLQQSGAEVKKPGSSVKVSCKASGGTFSSYAISWVRQAPGQGLEWMGGIIPILGIANYAQKFQGRVTITADESTSTAYMELSSLRSEDTAVYYCARGGSGSYHMDVWGKGTTVTVSS
VL: EIVLTQSPATLSLSPGERATLSCRASQSVSSYLAWYQQKPGQAPRLLIYDASNRATGIPARFSGSGSGTDFTLTISSLEPEDFAVYYCQQRSNWPPRITFGQGTRLEIKR
In test [2], B7 displayed an EC50 of 0.72 nM. The molecule also came in with an EC50 in test [3] of 4.49 nM. For the same molecule, the EC50 in test [4] turned out to be 259 nM. In test [6], binding was put at a Kd of 17 nM, the koff came to 0.0011 s⁻¹ and the kon was determined as 66000 M⁻¹ s⁻¹.
